Source: patent publication US20180216133A1

Tests used:
[1] = target: AAVrh64R1 capsid (vector) (adeno-associated virus rh.64R1); assay: AVB Sepharose HiTrap column, purified vector mix AAVrh64R1+AAVrh10; genome copies per fraction by real-time PCR
[2] = target: AAV3B capsid (vector AAV2/3B.CB7.CI.ffluciferase.RBG) (adeno-associated virus 3B); assay: AVB Sepharose HiTrap column, AVB.C (1 M NaCl) wash fraction; real-time PCR
[3] = target: AAV3B-NKDKLN capsid mutant (SPAKFA→NKDKLN) (adeno-associated virus 3B (engineered)); assay: as above
[4] = target: AAV3B capsid (vector AAV2/3B.CB7.CI.ffluciferase.RBG) (adeno-associated virus 3B); assay: AVB Sepharose HiTrap column, unbound vector in flow-through; real-time PCR
[5] = target: AAV3B-NKDKLN capsid mutant (SPAKFA→NKDKLN) (adeno-associated virus 3B (engineered)); assay: as above
[6] = target: AAVhu37 capsid (vector AAV2/AAVhu37.TBG.EGFP.bGH) (adeno-associated virus hu37); assay: AVB Sepharose HiTrap column, purified vector mix AAV8+AAVhu37+AAVrh10; genome copies per fraction by real-time PCR
[7] = target: AAV8 capsid (vector) (adeno-associated virus 8); assay: as above
[8] = target: AAV9 capsid (vector, CB7.CI.ffluciferase.RBG) (adeno-associated virus 9); assay: AVB Sepharose HiTrap column, clarified culture supernatant, wild type vs SPAKFA mutant head-to-head; real-time PCR
[9] = target: AAV8-SPAKFA capsid mutant (NQSKLN→SPAKFA) (adeno-associated virus 8 (engineered)); assay: as above
[10] = target: AAVrh64R1 capsid (vector) (adeno-associated virus rh.64R1); assay: as above
[11] = target: AAV9-SPAKFA capsid mutant (NKDKLN→SPAKFA) (adeno-associated virus 9 (engineered)); assay: as above
[12] = target: rh.64R1-SPAKFA capsid mutant (NQAKLN→SPAKFA) (adeno-associated virus rh.64R1 (engineered)); assay: as above
[13] = target: AAV8 capsid (vector) (adeno-associated virus 8); assay: as above
[14] = target: AAVrh10 capsid (vector AAV2/AAVrh10.CMV.PI.Cre.RBG) (adeno-associated virus rh10); assay: AVB Sepharose HiTrap column, purified vector mixes; genome copies per fraction by real-time PCR (average of two runs)
[15] = target: AAV3B capsid (vector AAV2/3B.CB7.CI.ffluciferase.RBG) (adeno-associated virus 3B); assay: AVB Sepharose HiTrap column, clarified culture supernatant, AAV3B vs AAV3B-NKDKLN head-to-head; real-time PCR
[16] = target: AAV3B-NKDKLN capsid mutant (SPAKFA→NKDKLN) (adeno-associated virus 3B (engineered)); assay: as above
[17] = target: AAV3B capsid (vector AAV2/3B.CB7.CI.ffluciferase.RBG) (adeno-associated virus 3B); assay: AVB Sepharose HiTrap column, DPBS wash fraction; real-time PCR
[18] = target: AAV3B-NKDKLN capsid mutant (SPAKFA→NKDKLN) (adeno-associated virus 3B (engineered)); assay: as above
[19] = target: AAV3B capsid (vector AAV2/3B.CB7.CI.ffluciferase.RBG) (adeno-associated virus 3B); assay: AVB Sepharose HiTrap column, clarified AAV3B product; genome copies per fraction by real-time PCR

AVB Sepharose High Performance affinity resin ligand: 14kD fragment from a single chain llama antibody expressed in yeast (VHH)
percent of loaded vector genome in the elution fraction [1]: 22%
percent of vector genomes in wash 2 (W2) fraction [2]: 0.3%
percent of vector genomes in wash 2 (W2) fraction [3]: 4.6%
percent of vector genomes in flow-through (FT) fraction [4]: 1.3%
percent of vector genomes in flow-through (FT) fraction [5]: 8.2%
percent of loaded vector genome in the elution fraction [6]: 82%
percent of loaded vector genome in the elution fraction [7]: 20%
percent recovery of loaded vector in the elution fraction (of total fractions) [8]: 0.6%
percent recovery of loaded vector in the elution fraction (of total fractions) [9]: 93%
percent recovery of loaded vector in the elution fraction (of total fractions) [10]: 18%
percent recovery of loaded vector in the elution fraction (of total fractions) [11]: 51%
percent recovery of loaded vector in the elution fraction (of total fractions) [12]: 91%
percent recovery of loaded vector in the elution fraction (of total fractions) [13]: 30%
percent of loaded vector genome in the elution fraction [14]: 84%
elution fraction yield [15]: 98%
elution fraction yield [16]: 87%
percent of vector genomes in wash 1 (W1) fraction [17]: 0%
percent of vector genomes in wash 1 (W1) fraction [18]: 0.1%
percent of vector genomes recovered in the elution fraction [19]: 98%
